Results on three molecules are retold here after PMC2646901, “Characterisation of receptor binding by the chemotaxis inhibitory protein of Staphylococcus aureus and the effects of the host immune response” (Molecular Immunology, 2007).

Sequences and labels used below:
B2: human C5a receptor (C5aR) (receptor)
chain: MDSFNYTTPDYGHYDDKDTLDLNTPVDKTSNTLRVPDILALVIFAVVFLVGVLGNALVVWVTAFEAKRTINAIWFLNLAVADFLSCLALPILFTSIVQHHHWPFGGAACSILPSLILLNMYASILLLATISADRFLLVFKPIWCQNFRGAGLAWIACAVAWGLALLLTIPSFLYRVVREEYFPPKVLCGVDYSHDKRRERAVAIVRLVLGFLWPLLTLTICYTFILLRTWSRRATRSTKTLKVVVAVVASFFIFWLPYQVTGIMMSFLEPSSPTFLLLKKLDSLCVSFAYINCCINPIIYVVAGQGFQGRLRKSLPSLLRNVLTEESVVRESKSFTRSTVDTMAQKTQAV
notes: human C5a receptor (C5aR), expressed on transfected RBL-2H3 or CHO cells; also called hC5aR; RBL-C5aR; source: RBL-2H3 or CHO cells, transfected by electroporation, on cells

Assay [1] addresses T1, recombinant chemotaxis inhibitory protein of Staphylococcus aureus, residues 28-149 (rCHIPS_(28–149)) (Staphylococcus aureus N315 (MRSA), UniProt A6QIG7 28-149).
T1 construct: three N-terminal residues, GlyAlaMet, left from the vector after TEV cleavage; Uniformly 15N-labelled (isotope only) in the NMR titrations; unlabelled in ITC and in the cell assays; also called unlabelled CHIPS; ^15N-labelled CHIPS_(28–149); source: E. coli BL21 (DE3), purified (glutathione sepharose 4B, TEV cleavage, Mono S); not shown: GST, N-terminal, cleaved
Briefly: ITC; CHIPS(28-149) (0.2 mM) titrated with the peptides; non-linear regression; data not shown. The settings on record: both partners purified.

In assay [2] the target is T1, recombinant chemotaxis inhibitory …. The experiment in a line: NMR titration; 1H-15N HSQC of 0.7 mM 15N-CHIPS(28-149), unlabelled lyophilized ligand added to ligand:CHIPS ratios 0, 1:2, 3:4, 1:1, 5:4; 25 °C, 100 mM phosphate pH 7.0, 200 mM NaCl, 1 mM DTT, 0.5 mM EDTA; Kd from fast-exchange shift curves, averaged over residues. The settings on record: both partners purified.

For assay [3], the target named is T2, FITC-labelled recombinant CHIPS_(28–149) (Staphylococcus aureus N315 (MRSA), UniProt A6QIG7 28-149, FITC label (site not stated)).
T2 construct: three N-terminal residues, GlyAlaMet, left from the vector after TEV cleavage; The discussion once calls the labelled protein of the serum assay rCHIPS_(26–141); results and methods say 28-149; also called FITC-rCHIPS_(28–149); FITC-CHIPS_(28–149); source: E. coli BL21 (DE3), purified (glutathione sepharose 4B, TEV cleavage, Mono S), FITC-labelled; not shown: GST, N-terminal, cleaved
Briefly: flow cytometry on cells; kinetics: 300 nM FITC-CHIPS(28-149) added to C5aR-transfected RBL cells, dissociation started with 14 μM unlabelled CHIPS(28-149); Kd from kobs and koff, five experiments. The settings on record: one partner purified. Background: In flow cytometry, cells or beads pass a laser one at a time.

In assay [4] the target is B2. Briefly: flow cytometry on cells; competition: RBL cells transfected with human C5aR pre-treated with unlabelled CHIPS or human C5a, then 210 nM FITC-rCHIPS(28-149); cell-associated fluorescence. The settings on record: one partner purified.

B1: human C5aR peptide of the N-terminal extracellular region M1-D37 with additional -APAPAC on the C-terminus (hC5aR_(1–37)) (peptide)
peptide: MDSFNYTTPDYGHYDDKDTLDLNTPVDKTSNTLRVPDAPAPAC
notes: human C5a receptor, N-terminal extracellular region, residues M1-D37; also called human C5aR_(1–37) peptide; source: gift from Dr M. Barker, Division of Genomic Medicine, Sheffield
Turning to B1, in assay [1], the Ka worked out at 25000 M⁻¹, the dissociation constant Kd is ~40 µM and the “stoichiometry N” value was 1.4 ± 0.8. In addition, the Kd in assay [2] stood at 8.25 µM.

On to B2, for which, in assay [3], the Kd was determined as 0.00722 ± 0.00666 µM.

B3: recombinant human C5a protein (rh-C5a) (ligand)
chain: TLQKKIEEIAAKYKHSVVKKCCYDGACVNNDETCEQRAARISLGPRCIKAFTECCVVASQLRANISHKDMQLGR
notes: source: expressed and purified according to a previously described protocol (Paczkowski et al., 1999)
On to B3, for which, in assay [4], the IC50 was ~0.25 µM.

Broadly, the Kd is the concentration at which binding is half-saturated. Usually stoichiometry N stands for the number of molecules, sites or subunits per partner or assembly. Broadly, the IC50 is the midpoint of a concentration-inhibition curve.
